Measurements reported in patent publication US20250128187A1.

Target: streptavidin immobilized on membrane (streptavidin modified membrane prepared according to FIG. 10) (Streptomyces avidinii) (UniProt P22629)
Experiment: depletion from solution; 0.0055 mL streptavidin membrane incubated in 0.4 mL of 1 mg/mL biotin-conjugate for 24 hours

streptavidin immobilized on membrane (streptavidin modified membrane prepared according to FIG. 10) (Streptomyces avidinii), sequence (P22629 37-163 limits assumed): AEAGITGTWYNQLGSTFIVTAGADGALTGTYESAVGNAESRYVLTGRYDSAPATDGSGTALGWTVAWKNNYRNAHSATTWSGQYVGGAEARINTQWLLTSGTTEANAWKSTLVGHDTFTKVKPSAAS

| Substance | Amount Immobilized (mg biotin-conjugate/mL membrane) (mg biotin-conjugate/mL membrane) |
| --- | --- |
| Biotin-BSA (from UniProt P02769 25-607) | 38.6 |
| Biotin-Mal 1 | 9.71 |
